IntAct's records for PubMed 31515488

B1: Cytochrome b-245 chaperone 1 (Homo sapiens), Q9BQA9 (parent)
chain: MYLQVETRTSSRLHLKRAPGIRSWSLLVGILSIGLAAAYYSGDSLGWKLFYVTGCLFVAVQNLEDWEEAIFDKSTGKVVLKTFSLYKKLLTLFRAGHDQVVVLLHDVRDVSVEEEKVRYFGKGYMVVLRLATGFSHPLTQSAVMGHRSDVEAIAKLITSFLELHCLESPTELSQSSDSEAGDPASQS
partner: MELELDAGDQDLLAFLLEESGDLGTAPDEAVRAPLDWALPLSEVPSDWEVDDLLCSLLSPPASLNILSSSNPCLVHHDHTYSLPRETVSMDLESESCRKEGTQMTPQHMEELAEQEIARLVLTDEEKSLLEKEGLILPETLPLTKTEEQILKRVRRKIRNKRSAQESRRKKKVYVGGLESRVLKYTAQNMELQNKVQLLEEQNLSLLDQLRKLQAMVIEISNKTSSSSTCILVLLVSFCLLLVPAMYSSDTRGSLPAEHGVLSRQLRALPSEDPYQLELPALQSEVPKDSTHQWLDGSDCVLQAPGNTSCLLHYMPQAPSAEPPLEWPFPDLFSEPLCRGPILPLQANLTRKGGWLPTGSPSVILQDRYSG
B2: Myogenin (Homo sapiens), P15173 (parent)
chain: MELYETSPYFYQEPRFYDGENYLPVHLQGFEPPGYERTELTLSPEAPGPLEDKGLGTPEHCPGQCLPWACKVCKRKSVSVDRRRAATLREKRRLKKVNEAFEALKRSTLLNPNQRLPKVEILRSAIQYIERLQALLSSLNQEERDLRYRGGGGPQPGVPSECSSHSASCSPEWGSALEFSANPGDHLLTADPTDAHNLHSLTSIVDSITVEDVSVAFPDETMPN
partner: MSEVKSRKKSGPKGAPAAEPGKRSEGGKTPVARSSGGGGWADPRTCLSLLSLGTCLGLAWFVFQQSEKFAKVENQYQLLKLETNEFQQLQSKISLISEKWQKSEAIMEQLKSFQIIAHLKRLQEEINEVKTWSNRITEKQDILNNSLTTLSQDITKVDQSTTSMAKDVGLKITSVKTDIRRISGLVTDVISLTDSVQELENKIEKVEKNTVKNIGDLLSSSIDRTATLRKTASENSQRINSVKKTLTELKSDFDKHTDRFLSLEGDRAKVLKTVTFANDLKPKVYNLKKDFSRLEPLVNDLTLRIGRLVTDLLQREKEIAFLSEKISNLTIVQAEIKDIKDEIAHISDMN
B3: G-patch domain and KOW motifs-containing protein (Homo sapiens), Q92917 (parent)
chain: MADSKEGVLPLTAASTAPISFGFTRTSARRRLADSGDGAGPSPEEKDFLKTVEGRELQSVKPQEAPKELVIPLIQNGHRRQPPARPPGPSTDTGALADGVVSQAVKELIAESKKSLEERENAGVDPTLAIPMIQKGCTPSGEGADSEPRAETVPEEANYEAVPVEAYGLAMLRGMGWKPGEGIGRTFNQVVKPRVNSLRPKGLGLGANLTEAQALTPTGPSRMPRPDEEQEKDKEDQPQGLVPGGAVVVLSGPHRGLYGKVEGLDPDNVRAMVRLAVGSRVVTVSEYYLRPVSQQEFDKNTLDLRQQNGTASSRKTLWNQELYIQQDNSERKRKHLPDRQDGPAAKSEKAAPRSQHWLHRDLRVRFVDNMYKGGQYYNTKMIIEDVLSPDTCVCRTDEGRVLEGLREDMLETLVPKAEGDRVMVVLGPQTGRVGHLLSRDRARSRALVQLPRENQVVELHYDAICQYMGPSDTDDD
partner: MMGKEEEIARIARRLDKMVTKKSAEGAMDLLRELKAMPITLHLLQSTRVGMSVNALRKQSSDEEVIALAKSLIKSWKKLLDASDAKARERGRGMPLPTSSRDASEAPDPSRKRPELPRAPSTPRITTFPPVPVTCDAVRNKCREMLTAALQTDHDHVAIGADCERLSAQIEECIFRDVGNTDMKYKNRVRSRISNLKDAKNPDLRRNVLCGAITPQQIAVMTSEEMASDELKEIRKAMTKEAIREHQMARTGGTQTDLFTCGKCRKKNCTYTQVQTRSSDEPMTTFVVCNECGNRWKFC
B4: PHD finger protein 1 (Homo sapiens), O43189 (parent)
chain: MAQPPRLSRSGASSLWDPASPAPTSGPRPRLWEGQDVLARWTDGLLYLGTIKKVDSAREVCLVQFEDDSQFLVLWKDISPAALPGEELLCCVCRSETVVPGNRLVSCEKCRHAYHQDCHVPRAPAPGEGEGTSWVCRQCVFAIATKRGGALKKGPYARAMLGMKLSLPYGLKGLDWDAGHLSNRQQSYCYCGGPGEWNLKMLQCRSCLQWFHEACTQCLSKPLLYGDRFYEFECCVCRGGPEKVRRLQLRWVDVAHLVLYHLSVCCKKKYFDFDREILPFTSENWDSLLLGELSDTPKGERSSRLLSALNSHKDRFISGREIKKRKCLFGLHARMPPPVEPPTGDGALTSFPSGQGPGGGVSRPLGKRRRPEPEPLRRRQKGKVEELGPPSAVRNQPEPQEQRERAHLQRALQASVSPPSPSPNQSYQGSSGYNFRPTDARCLPSSPIRMFASFHPSASTAGTSGDSGPPDRSPLELHIGFPTDIPKSAPHSMTASSSSVSSPSPGLPRRSAPPSPLCRSLSPGTGGGVRGGVGYLSRGDPVRVLARRVRPDGSVQYLVEWGGGGIF
partner: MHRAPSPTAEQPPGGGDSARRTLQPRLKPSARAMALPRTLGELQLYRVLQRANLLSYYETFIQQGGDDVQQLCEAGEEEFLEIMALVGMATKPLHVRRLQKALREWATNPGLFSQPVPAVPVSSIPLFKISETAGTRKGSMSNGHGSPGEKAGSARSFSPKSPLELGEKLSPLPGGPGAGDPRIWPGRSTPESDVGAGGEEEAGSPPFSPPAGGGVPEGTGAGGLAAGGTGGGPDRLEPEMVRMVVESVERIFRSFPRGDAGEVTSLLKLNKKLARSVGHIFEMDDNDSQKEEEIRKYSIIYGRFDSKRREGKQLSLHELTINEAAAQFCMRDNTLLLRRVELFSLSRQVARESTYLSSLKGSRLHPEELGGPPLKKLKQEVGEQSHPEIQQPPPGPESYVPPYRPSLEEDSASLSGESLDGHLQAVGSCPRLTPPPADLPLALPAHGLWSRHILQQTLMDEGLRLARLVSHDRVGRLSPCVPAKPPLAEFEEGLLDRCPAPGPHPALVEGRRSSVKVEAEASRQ
B5: Histone-lysine N-methyltransferase SMYD1 (Homo sapiens), Q8NB12 (parent)
chain: MTIGRMENVEVFTAEGKGRGLKATKEFWAADIIFAERAYSAVVFDSLVNFVCHTCFKRQEKLHRCGQCKFAHYCDRTCQKDAWLNHKNECSAIKRYGKVPNENIRLAARIMWRVEREGTGLTEGCLVSVDDLQNHVEHFGEEEQKDLRVDVDTFLQYWPPQSQQFSMQYISHIFGVINCNGFTLSDQRGLQAVGVGIFPNLGLVNHDCWPNCTVIFNNGNHEAVKSMFHTQMRIELRALGKISEGEELTVSYIDFLNVSEERKRQLKKQYYFDCTCEHCQKKLKDDLFLGVKDNPKPSQEVVKEMIQFSKDTLEKIDKARSEGLYHEVVKLCRECLEKQEPVFADTNIYMLRMLSIVSEVLSYLQAFEEASFYARRMVDGYMKLYHPNNAQLGMAVMRAGLTNWHAGNIEVGHGMICKAYAILLVTHGPSHPITKDLEAMRVQTEMELRMFRQNEFMYYKMREAALNNQPMQVMAEPSNEPSPALFHKKQ

Variants of: B1
Conditions: with creb3_human CREB3, O43889

| effect of a mutation on the interaction | Variant |
| --- | --- |
| with no effect | R129W |

Variants of: B2
Conditions: with ikip_human IKBIP

| effect of a mutation on the interaction | Variant |
| --- | --- |
| disrupting interaction strength | A181T |

Variants of: B3
Conditions: with tcea2_human TCEA2, Q15560

| effect of a mutation on the interaction | Variant |
| --- | --- |
| with no effect | V393A |
| with no effect | A129T |

Variants of: B4
Conditions: with nab2_human NAB2, Q15742

| effect of a mutation on the interaction | Variant |
| --- | --- |
| with no effect | S14L |

Variants of: B5
Conditions: with bhe40_human BHLHE40, O14503
Chain of bhe40_human BHLHE40, O14503 (O14503 whole entry): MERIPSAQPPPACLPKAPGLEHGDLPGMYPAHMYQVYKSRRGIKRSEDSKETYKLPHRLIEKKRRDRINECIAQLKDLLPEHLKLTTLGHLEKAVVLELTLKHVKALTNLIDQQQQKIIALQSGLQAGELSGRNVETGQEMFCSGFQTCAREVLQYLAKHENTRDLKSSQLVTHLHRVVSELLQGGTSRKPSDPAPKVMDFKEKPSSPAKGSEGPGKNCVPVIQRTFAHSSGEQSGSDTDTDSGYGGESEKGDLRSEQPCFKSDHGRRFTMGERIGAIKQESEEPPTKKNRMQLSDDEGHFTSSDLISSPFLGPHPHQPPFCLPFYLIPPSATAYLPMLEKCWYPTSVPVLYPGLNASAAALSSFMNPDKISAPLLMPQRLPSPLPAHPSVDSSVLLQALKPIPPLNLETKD

| effect of a mutation on the interaction | Variant |
| --- | --- |
| with no effect | R441W |
